To fix the notation:
T1: HA-tagged murine Wnt-1 (mouse, UniProt P04426 28-370)
T1 construct: also called pLNCWnt1HA; pLNCW1-HA; not shown: hemagglutinin (HA) tag near the C-terminus
T1 sequence (looked up): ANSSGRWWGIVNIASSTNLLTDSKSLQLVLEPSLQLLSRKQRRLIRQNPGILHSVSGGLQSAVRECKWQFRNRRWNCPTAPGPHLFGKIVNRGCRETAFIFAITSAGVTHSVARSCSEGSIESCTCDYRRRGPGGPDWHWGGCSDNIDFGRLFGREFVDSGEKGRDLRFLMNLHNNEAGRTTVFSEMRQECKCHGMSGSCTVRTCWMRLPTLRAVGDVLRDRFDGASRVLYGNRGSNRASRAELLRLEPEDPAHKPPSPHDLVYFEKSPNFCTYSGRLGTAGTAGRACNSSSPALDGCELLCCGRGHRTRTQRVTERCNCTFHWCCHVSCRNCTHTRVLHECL

T2: HA-tagged mouse Wnt-4 (mouse, UniProt P22724 23-351, limits assumed)
T2 construct: also called pLNCW4-HA; not shown: HA tag
T2 sequence (looked up): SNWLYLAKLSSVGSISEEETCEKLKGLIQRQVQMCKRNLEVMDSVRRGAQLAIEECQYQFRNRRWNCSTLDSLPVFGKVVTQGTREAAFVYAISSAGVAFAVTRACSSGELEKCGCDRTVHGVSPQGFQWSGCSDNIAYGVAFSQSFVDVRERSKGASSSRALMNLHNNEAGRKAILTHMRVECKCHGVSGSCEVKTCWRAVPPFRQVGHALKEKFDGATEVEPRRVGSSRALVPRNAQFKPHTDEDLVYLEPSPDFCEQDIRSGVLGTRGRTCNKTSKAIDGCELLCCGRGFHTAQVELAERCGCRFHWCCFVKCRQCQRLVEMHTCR

T3: HA-tagged mouse Wnt-7B (mouse, UniProt P28047 25-349, limits assumed)
T3 construct: also called pLNCW7B-HA; not shown: HA tag
T3 sequence (looked up): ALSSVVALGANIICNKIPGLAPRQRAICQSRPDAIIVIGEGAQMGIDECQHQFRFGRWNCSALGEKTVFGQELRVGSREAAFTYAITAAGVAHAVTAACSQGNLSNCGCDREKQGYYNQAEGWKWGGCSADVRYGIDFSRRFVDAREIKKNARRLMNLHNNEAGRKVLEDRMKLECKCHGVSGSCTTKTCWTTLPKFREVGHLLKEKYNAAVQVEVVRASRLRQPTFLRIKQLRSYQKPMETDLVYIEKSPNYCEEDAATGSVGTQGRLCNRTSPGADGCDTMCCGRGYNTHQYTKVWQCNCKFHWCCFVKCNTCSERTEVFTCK

T4: HA-tagged mouse Wnt-7A (mouse, UniProt P24383 32-349, limits assumed)
T4 construct: also called pLNCW7A-HA; not shown: HA tag
T4 sequence (looked up): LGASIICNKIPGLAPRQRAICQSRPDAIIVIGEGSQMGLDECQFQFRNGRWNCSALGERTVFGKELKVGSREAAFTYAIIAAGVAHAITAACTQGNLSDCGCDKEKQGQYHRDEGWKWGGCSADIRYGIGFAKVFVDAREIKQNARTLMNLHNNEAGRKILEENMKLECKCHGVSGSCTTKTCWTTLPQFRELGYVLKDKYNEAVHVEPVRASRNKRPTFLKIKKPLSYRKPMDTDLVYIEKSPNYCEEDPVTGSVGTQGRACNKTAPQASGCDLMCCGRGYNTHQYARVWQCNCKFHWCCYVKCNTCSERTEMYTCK

T5: HA-tagged mouse Wnt-5B (mouse, UniProt P22726 18-359, limits assumed)
T5 construct: also called pLNCW5B-HA; not shown: HA tag
T5 sequence (looked up): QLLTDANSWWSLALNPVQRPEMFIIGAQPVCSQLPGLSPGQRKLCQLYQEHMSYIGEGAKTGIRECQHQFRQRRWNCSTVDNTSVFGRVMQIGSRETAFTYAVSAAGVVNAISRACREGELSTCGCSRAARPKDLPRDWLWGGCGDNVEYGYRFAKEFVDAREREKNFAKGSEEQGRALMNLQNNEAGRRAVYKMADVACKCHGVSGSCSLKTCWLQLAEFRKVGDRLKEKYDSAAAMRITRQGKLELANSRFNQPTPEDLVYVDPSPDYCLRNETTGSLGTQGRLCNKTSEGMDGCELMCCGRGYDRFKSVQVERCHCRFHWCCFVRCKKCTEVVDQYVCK

T6: HA-tagged mouse Wnt-2 (mouse, UniProt P21552 26-360, limits assumed)
T6 construct: also called pLNCW2-HA; not shown: HA tag
T6 sequence (looked up): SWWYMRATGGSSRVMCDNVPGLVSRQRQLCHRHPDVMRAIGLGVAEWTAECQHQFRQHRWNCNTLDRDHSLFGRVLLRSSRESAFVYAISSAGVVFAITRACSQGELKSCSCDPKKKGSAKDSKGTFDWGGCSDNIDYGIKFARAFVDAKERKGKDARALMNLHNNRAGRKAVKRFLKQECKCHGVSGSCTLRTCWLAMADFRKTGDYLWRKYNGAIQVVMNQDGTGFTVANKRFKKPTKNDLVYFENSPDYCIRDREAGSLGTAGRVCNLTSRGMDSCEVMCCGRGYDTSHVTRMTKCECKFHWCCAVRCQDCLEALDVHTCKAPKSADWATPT

T7: HA-tagged mouse Wnt-6 (mouse, UniProt P22727 24-364, limits assumed)
T7 construct: also called pLNCW6-HA; not shown: HA tag
T7 sequence (looked up): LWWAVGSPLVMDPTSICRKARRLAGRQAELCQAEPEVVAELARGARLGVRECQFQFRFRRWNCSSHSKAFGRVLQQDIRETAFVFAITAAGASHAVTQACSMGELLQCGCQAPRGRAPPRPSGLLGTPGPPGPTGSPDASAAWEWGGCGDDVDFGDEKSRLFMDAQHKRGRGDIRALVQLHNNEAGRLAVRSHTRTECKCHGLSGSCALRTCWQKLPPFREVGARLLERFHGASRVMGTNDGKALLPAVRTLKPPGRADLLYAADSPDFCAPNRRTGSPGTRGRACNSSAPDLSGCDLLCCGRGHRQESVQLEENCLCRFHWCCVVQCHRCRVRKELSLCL

T8: Xwnt-8^myc (Xenopus, UniProt P28026 23-358, limits assumed)
T8 construct: also called myc-tagged XWnt-8
T8 sequence (looked up): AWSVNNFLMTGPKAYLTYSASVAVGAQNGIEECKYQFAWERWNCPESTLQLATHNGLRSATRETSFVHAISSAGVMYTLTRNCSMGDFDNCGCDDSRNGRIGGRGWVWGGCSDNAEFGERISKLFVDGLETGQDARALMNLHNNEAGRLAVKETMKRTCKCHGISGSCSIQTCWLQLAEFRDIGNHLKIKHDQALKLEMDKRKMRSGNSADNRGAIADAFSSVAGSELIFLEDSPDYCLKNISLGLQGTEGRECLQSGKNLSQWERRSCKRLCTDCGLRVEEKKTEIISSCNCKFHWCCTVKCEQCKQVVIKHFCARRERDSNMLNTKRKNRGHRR

B1: Frzb deletion construct delta CRD (other)
chain: AACEPVVCISPEAIVTADGADFPMDSSNGNCRGASSERCKCKPVRATQKTYFRNNYNYVIRAKVKEIKTKCHDVTAVVEVKEILKASLVNIPRETVNLYTSSGCLCPPLNVNEEYLIMGYEDEERSRLLLVEGSIAEKWKDRLGKKVKRWDMKLRHLGLNTSDSSHSDSTQSQKPGRNSNSRQARN
notes: Made by deleting amino acids 39 to 145 of Frzb; also called CRD deletion; removal of the entire frizzled domain
B2: bovine Frzb (other)
chain: AACEPVRIPLCKSLPWNMTKMPNHLHHSTQANAILAIEQFEGLLGTHCSPDLLFFLCAMYAPICTIDFQHEPIKPCKSVCERARQGCEPILIKYRHSWPESLACEELPVYDRGVCISPEAIVTADGADFPMDSSNGNCRGASSERCKCKPVRATQKTYFRNNYNYVIRAKVKEIKTKCHDVTAVVEVKEILKASLVNIPRETVNLYTSSGCLCPPLNVNEEYLIMGYEDEERSRLLLVEGSIAEKWKDRLGKKVKRWDMKLRHLGLNTSDSSHSDSTQSQKPGRNSNSRQARN
notes: Full-length bovine Frzb expressed from pcDNA3 (pFrzb) in COS7 cells, or translated in vitro with microsomal membranes, or from injected mRNA; also called Bfrzb; BFrzb
B3: β-lactamase (enzyme)
chain: HPETLVKVKDAEDQLGARVGYIELDLNSGKILESFRPEERFPMMSTFKVLLCGAVLSRVDAGQEQLGRRIHYSQNDLVEYSPVTEKHLTDGMTVRELCSAAITMSDNTAANLLLTTIGGPKELTAFLHNMGDHVTRLDRWEPELNEAIPNDERDTTMPAAMATTLRKLLTGELLTLASRQQLIDWMEADKVAGPLLRSALPAGWFIADKSGAGERGSRGIIAALGPDGKPSRIVVIYTTGSQATMDERNRQIAEIGASLIKHW
notes: also called β-lactamase control

In one assay the target is Xwnt-8 (Xenopus) (UniProt P28026). Briefly: cell-based or functional assay.
Assay [1] deals with T1, HA-tagged murine Wnt-1. In words: co-immunoprecipitation from lysates of co-transfected COS7 cells.
The next assay addresses T2, HA-tagged mouse Wnt-4. In words: anti-HA immunoprecipitation of co-transfected COS7 lysates, immunoblot with N374-PEP. Background: In western blotting, separated proteins are transferred to a membrane and probed.
The target in a further assay is T3, HA-tagged mouse Wnt-7B. The assay is described as above.
The target of a further assay is T4, HA-tagged mouse Wnt-7A. The assay is described as above.
The target in another assay is T5, HA-tagged mouse Wnt-5B. Described as above.
For a further assay, the target named is T9, HA-tagged mouse Wnt-3A (mouse, UniProt P27467 19-352, limits assumed).
T9 construct: also called pLNCW3A-HA; not shown: HA tag
T9 sequence (P27467 19-352 limits assumed): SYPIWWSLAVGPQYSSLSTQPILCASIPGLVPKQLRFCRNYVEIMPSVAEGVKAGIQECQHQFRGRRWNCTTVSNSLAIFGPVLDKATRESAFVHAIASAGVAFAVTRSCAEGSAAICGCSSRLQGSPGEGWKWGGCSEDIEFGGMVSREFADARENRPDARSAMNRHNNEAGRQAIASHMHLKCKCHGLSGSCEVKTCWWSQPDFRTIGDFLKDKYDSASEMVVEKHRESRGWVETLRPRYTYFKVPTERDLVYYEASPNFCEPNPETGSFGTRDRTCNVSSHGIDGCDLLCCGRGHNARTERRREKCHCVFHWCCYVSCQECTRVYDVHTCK
The description is as above.

The target of assay [2] is T1, HA-tagged murine Wnt-1. The assay is described as above.
In another assay the target is T6, HA-tagged mouse Wnt-2. The description is as above.
For the next assay, the target named is T7, HA-tagged mouse Wnt-6. The description is as above.
A further assay addresses T8, Xwnt-8^myc. In words: co-immunoprecipitation after in vitro cotranslation.
The target of the assay “bovine Frzb” is B2. The assay is described as above.

Description for HA-tagged mouse Wnt-2: (§1) Transfections were performed for 6 hours in serum-free Opti-MEM I® (Life Technologies). Thereafter, cells were incubated for 18 hours in media containing 10% fetal bovine serum. Subsequently, cells were cultured at 37° C. for 24 hours in serum-free Opti-MEM I®. Cells were extracted for 30 minutes on ice with 50 mM Tris-HCl, 150 mM NaCl, 1.0% NP-40, 0.5% Deoxycholic acid and 0.1% SDS and centrifuged at 12,000× g for 5 minutes. Supernatants were saved for immunoprecipitation.
Description for HA-tagged mouse Wnt-3A: as §1
Description for HA-tagged mouse Wnt-4: as §1
Description for HA-tagged mouse Wnt-5B: as §1
Description for HA-tagged mouse Wnt-6: as §1
Description for HA-tagged mouse Wnt-7A: as §1
Description for HA-tagged mouse Wnt-7B: as §1

Consider Xenopus Frzb, for which the head defects produced by CSKA-Xwnt-8 plasmid in dorsal blastomeres (64/80 embryos without Xfrzb) (embryos with head defects out of 81) with Xwnt-8 (Xenopus) was 0.

As for B1, in the assay with HA-tagged murine Wnt-1 [1], the binding result is recorded as “no binding”.

As to B2, the binding result with HA-tagged mouse Wnt-4, with HA-tagged mouse Wnt-7B, with HA-tagged mouse Wnt-7A, with HA-tagged mouse Wnt-5B, with HA-tagged mouse Wnt-3A and with HA-tagged murine Wnt-1 [2] was “binds” each time. Besides, the binding result in the assay with HA-tagged mouse Wnt-2 and with HA-tagged mouse Wnt-6 was “binds” in each case.

Consider B3, for which the binding result with Xwnt-8^myc and in the assay with bovine Frzb was “no binding” in each case.

Source of the values: patent US20030009023A1 (US Dept. of Health and Human Services, published 2003).
